Values of other authors as cited in PMC10178616.

Molecular target: AGR2 (Homo sapiens) (UniProt O95994)

## AGR2 (from UniProt O95994)
  Kd: 8.83 µM
